Laboratory results from patent US6180362A, “Peptides which inhibit ras protein activity, their preparation and use” (Rhone-Poulenc Rorer S.A., priority 1992, dated 2001).
One block for each molecule: values may come before it.

Tests used:
[1] = tested on: maturation of Xenopus eggs induced by p21 ras Lys12; test: Maturation of Xenopus eggs (oocytes) induced by ras, % GVBD; assay type: cell-based, Xenopus laevis; conditions: microinjection into oocyte cytoplasm together with ras p21 protein; GVBD after 18 hours
Description: Xenopus laevis frogs were obtained from CNRS (Montpellier, France). The frogs are anaesthetized in ice-water and fragments of the ovaries are removed surgically and transferred to a modified Barth medium (Hirai et al., Dev. Biol. 100 (1984) 214). The stage VI oocytes are recovered by agitating the oocyte aggregates for 2 hours at ambient temperature in the presence of 2 mg/ml of collagenase (Sigma). For analysis of the maturation induced by ras, 40 nl of the protein in modified Barth medium are introduced into the cytoplasm of the oocytes by microinjection, either alone or in the presence of various concentrations of anti-GAP antibodies. For analysis of the maturation induced by hormones, the oocytes are incubated in the presence of insulin (10 μg/ml) and zinc chloride (10 μM) (bovine pancreatic insulin, Sigma) or progesterone (1 μM). The oocytes are kept at 20° C. in modified Barth medium, and the […] germinal vesicle breakdown (GVBD) is determined after incubation for 18 hours by dissection of the oocytes, which have been fixed beforehand in the presence of 5% of trichloroacetic acid. The results are expressed by the % GVBD on groups of oocytes.
E.3.1. The biological activity of the peptides according to the invention was studied by measuring their effect on the maturation of Xenopus eggs induced by p21 ras Lys12, by insulin or by progesterone.
The protocol used is the same as that described in Example E.1.1. above. The activity is measured by microinjection into the cytoplasm of the oocytes of 40 nl of the ras p21 protein in modified Barth medium, either alone or in the presence of various peptides according to the invention in varying concentrations. The results are expressed by the % of GVBD over the groups of oocytes. The results are shown on FIG. 3.

[2] = target: T1, GAP-p21 interaction (Ha-ras p21-GTP and GAP) (Homo sapiens, UniProt P20936); test: GAP-stimulated GTPase reaction of Ha-ras p21-GTP (GAP-p21 interaction); assay type: biochemical
T1 construct: GST (glutathione S-transferase) (N); made in house; host or cells: E. coli (crude cytosol for GAP)
T1 sequence (P20936 1-1047): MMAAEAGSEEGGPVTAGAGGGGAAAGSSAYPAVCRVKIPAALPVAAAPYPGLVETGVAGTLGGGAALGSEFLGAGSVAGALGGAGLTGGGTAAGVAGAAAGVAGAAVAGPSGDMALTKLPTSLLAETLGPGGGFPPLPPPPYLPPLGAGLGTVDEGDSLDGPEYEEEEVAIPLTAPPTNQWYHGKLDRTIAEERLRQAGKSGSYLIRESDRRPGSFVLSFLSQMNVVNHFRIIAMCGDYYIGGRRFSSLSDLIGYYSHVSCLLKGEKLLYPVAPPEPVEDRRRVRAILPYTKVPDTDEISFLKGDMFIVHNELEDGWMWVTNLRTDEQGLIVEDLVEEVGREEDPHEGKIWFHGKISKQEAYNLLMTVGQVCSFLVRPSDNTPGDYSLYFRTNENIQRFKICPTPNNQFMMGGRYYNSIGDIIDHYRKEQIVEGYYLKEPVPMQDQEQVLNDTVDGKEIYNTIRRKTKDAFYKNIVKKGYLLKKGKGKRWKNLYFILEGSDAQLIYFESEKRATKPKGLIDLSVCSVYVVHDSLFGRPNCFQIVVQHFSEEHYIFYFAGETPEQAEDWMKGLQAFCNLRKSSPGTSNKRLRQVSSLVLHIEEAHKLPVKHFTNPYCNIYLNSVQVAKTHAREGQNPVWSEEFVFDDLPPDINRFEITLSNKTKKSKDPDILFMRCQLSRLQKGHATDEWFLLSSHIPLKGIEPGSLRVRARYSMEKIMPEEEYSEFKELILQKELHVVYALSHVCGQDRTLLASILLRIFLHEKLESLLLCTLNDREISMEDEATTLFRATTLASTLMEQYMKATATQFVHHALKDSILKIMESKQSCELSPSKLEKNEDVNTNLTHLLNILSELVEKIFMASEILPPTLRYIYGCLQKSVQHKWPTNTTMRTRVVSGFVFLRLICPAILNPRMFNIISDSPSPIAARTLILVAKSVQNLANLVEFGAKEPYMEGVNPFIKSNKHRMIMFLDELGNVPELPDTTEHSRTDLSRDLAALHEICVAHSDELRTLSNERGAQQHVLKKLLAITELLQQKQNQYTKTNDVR
Description: E.1.2. Absence of an effect of the Ac200 antibody on the GAP-p21 interaction The interaction between GAP and the complex p21-GTP is determined in accordance with the following protocol. The normal protein Ha-ras p21 (Rey et al., Mol. Cell. Biol. 9 (1989) 3904) is equilibrated with an excess of (γ-^32 P) GTP (3000 Ci/mmol, Dupont, NEN Research Products, Boston, Mass.) in a buffer of Tris-HCl 20 mM (pH 7.5), 100 mM (NH4)2 SO4, 10 mM dithiothreitol, 1 mM MgCl2 and 50 mg/ml of bovine serum albumin for 30 minutes at 30° C. The incubation is stopped by applying the cooled solution to a PD10 column (Pharmacia) equilibrated by a buffer of Tris-HCl 20 mM (pH 7.5), 10 mM dithiothreitol, 10 mM MgCl2 and 1 mM phenylmethylsulphonyl fluoride, to eliminate the free nucleotides. The GTPase reaction is a variant of that described by Cassel and Selinger (Biochim. Biophys. Acta 452 (1976) 538). The reaction is started by addition of 10 μl (15 μg) of cytosol obtained by sonic treatment of strains of E. coli which express GAP (cf. Example E.2.1. below for the production of GAP) to 1 pmol of Ha-ras p21-(g^-32 P) GTP in the buffer Tris-HCl 20 mM (pH 7.5), NaCl 100 mM, dithiothreitol 10 mM, MgCl2 5 mM, GTP 100 μM and BSA 50 μg/ml, to obtain a final volume of 50 μl. […] After centrifugation at 1800 g, the radioactivity is measured in samples of 200 μl of the supernatant.

[3] = tested on: NIH 3T3 cells cotransfected with oncogenic Ha-ras Val12; test: Formation of foci of transformed cells; assay type: cell-based; conditions: foci formation test, result in words
Description: The activity of P9 was then evaluated in a test for formation of foci of transformed cells. The cancerous cells in fact have the property of forming transformation foci, and in particular fibroblasts NIH 3T3 expressing an oncogenic ras. The cells NIH 3T3 were cultured in DMEM medium (Dulbecco's modified Eagle medium) comprising 10% of foetal calf serum at 37° C. in a humid environment containing 5% of CO2. The plasmids pSV2-GAP and pSV2-P9 were constructed by inserting the nucleotide sequences coding for GAP and for P9 (SEQ ID No. 4) into the vector SV2. The cells NIH 3T3 were cotransfected with an oncogenic ras Ha-ras Va112, the plasmide indicated in the table, and a 10-fold excess of the gene having resistance to neomycin by the technique of transfection with cationic lipids (Schweighoffer et al., Science 256 (1992) 825). The same amount of total DNA is transfected for each dish. 24 hours after transfection, the transfected cells originating from each Petri dish (100 mm) are divided in a ratio of 1 to 10 and cultured in the same medium but in the presence of G418 (Gibco/BRL) in an amount of 0.4 mg/ml of medium. The number of transformation foci obtained per μg of transfected DNA is compatibilized after culture for 14 days. They represent the mean of four independent tests.

B1: [768-860] PLCγ: fragment of identical length prepared by the same techniques from type γ human phospholipase C (protein, UniProt P19174 768-860, looked up, fragment)
chain: EPDYGALYEGRNPGFYVEANPMPTFKCAVKALFDYKAQREDELTFIKSAIIQNVEKQEGGWWRGDYGGKKQLWFPSNYVEEMVNPVALEPERE
Inhibition of the transformation activity of the ras protein (maturation of Xenopus eggs, % GVBD) [1]: does not have the activity of the peptide according to the invention

Relative GAP activity ([2]; None = 100, GTPase reaction 3 minutes at 30° C., 1 pmol Ha-ras p21-GTP, E. coli cytosol expressing GAP): 100
B2: [275-351] GAP: fragment of the protein GAP holding the effector region, about residues 275 to 350; peptide SEQ ID No. 2 (protein)
chain: APPEPVEDRRRVRAILPYTKVPDTDEISFLKGDMFIVHNELEDGWMWVTNLRTDEQGLIVEDLVEEVGREEDPHEGKI
Effect on the GAP-p21 interaction ([2]; same GTPase test, result in words): does not modify the functional interaction of GAP-p21
Inhibition of the transformation activity of the ras protein (maturation of Xenopus eggs, % GVBD) [1]: capable of inhibiting the transformation activity of the ras protein

B3: P9: Peptide SEQ ID No. 4, purified as GST fusion protein and separated from GST by thrombin cleavage (protein)
chain: GGGFPPLPPPPYLPPLGAGLGTVDEGDSLDGPEYEEEEVAIPLTAPPTNQWYHGKLDRTIAEERLRQAGKSGSYLIRESDRRPGSFVLSFLSQMNVVNHFRIIAMCGDYYIGGRRFSSLSDLIGYYSHVSCLLKGEKLLYPVAPPEPVEDRRRVRAILPYTKVPDTDEISFLKGDMFIVHNELEDGWMWVTNLRTDEQGLIVEDLVEEVGREEDPHEGKIWFHGKISKQEAYNLLMTVGQVCSFLVRPSDNTPGDYSLYFRTNENIQRFKICPTPNNQFMMGGRYYNSIGDIIDHYRKEQIVEGYYLKEPVPMQDQEQVLNDTVDGKEIYNTIRRKTKDAFYKNIVKKGYLLKKGKGKRWKNLYFILEGSDAQLIYFESEKRATKPKGLIDLSVCSVYVVHDSLFGRPNCFQIVVQHFSEEHYIFYFAGETPEQAEDWMKGLQAFCNLRKSSPGTSNKRLRQVSSLVLHIEEAHKLPVKHFTNPYCNIYLNSVQVAKTHAREGQNPVWSEEFVFDD
Inhibition of the transformation activity of the ras protein (maturation of Xenopus eggs, % GVBD) [1]: completely blocks maturation of ovocytes
Reduction of the transforming power of an oncogenic ras gene [3]: capable of very greatly reducing the transforming power of an oncogenic ras gene
